Test results as given in patent US7592168B2, “Cephalosporin C acylase mutant and method for preparing 7-ACA using same” (Sandoz AG, priority 2003, dated 2009).

Assays:
[1] = Productivity of CPC acylase mutant, pET29 plasmids in E. coli BL21(DE3) with lactose; details: pET29-S12, E. coli BL21(DE3), 2% lactose, 25° C., 72 hr
Description: Each of pET29-TnS5αβ and pET29-S12 plasmids was transformed into E. coli BL21(DE3) by electrophoration to prepare the recombinant E. coli containing pET29-TnS5αβ and pET29-S12 plasmid, respectively, and the productivity of sixfold CPC acylase mutant in each recombinant E. coli was measured The TnS5αβ and S12 CPC acylase mutant gene in these recombinant plasmids was transcribed by the action of T7 promoter which is under the control of LacI operator existed on pET29-a(+) vector.
The recombinant E. coli containing pET-TnS5αβ plasmid was inoculated in […] of a LB broth containing 20 μg/ml of kanamycin and cultivated at 30° C., 200 rpm for 16 hr with vigorous shaking. […] The activity of sixfold CPC acylase mutant to CPC was measured using said crude enzyme solution according to the same method as described in Example <1-1-2>.
Further, the productivity of CPC acylase by S12 mutant enzyme in the E. coli BL21(DE3) transformant containing pET29-S12 recombinant plasmid was measured according to the same method as described above except that […] of a LB broth containing 20 μg/ml of kanamycin and 2% lactose was employed for a main cultivation and the E. coli transformant was cultured at 25° C., 200 rpm for 72 hr with vigorous shaking. […]

[2] = Reactivity to CPC (relative 7-ACA produced by the same amount of protein); assay type: biochemical; details: crude enzyme solution
Description: (§1) The enzyme activity of CPC acylase mutant to CPC was measured according to the method described by Park et al. with minor modifications as follows (Park, et al., Kor. J. Appl. Microbiol. Biotechnol. 23: 559-564, 1995). A substrate solution was prepared by dissolving CPC (purity 74.2%; CJ Corp., Korea) in 0.1 M Tris-HCl buffer solution (pH 8.0) at a concentration of 20 mg/ml and adjusting pH to 8 with 1 N NaOH. 20 μl of the CPC solution was mixed with 20 μl of the crude enzyme solution prepared above and the reaction mixture was incubated at 37° C. for 5 min. After the reaction, the mixture (200 μl) of 50 mM NaOH and 20% glacial acetic acid (1:2) was added thereto to stop the reaction. 200 μl of the supernatant recovered from the reaction mixture by centrifugation was mixed with 40 μl of 0.5% (w/v) PDAB (p-dimethylaminobenzaldehyde; Sigma, USA) dissolved in a methanol and the reaction mixture was incubated at 37° C. for 10 min. After the reaction, the absorbance of reaction mixture was measured at 415 nm and quantified by comparing with a calibration curve of standard material. […] Meanwhile, the specific activity of CPC acylase mutant for CPC was determined by measuring the amount of protein remaining in the enzyme solution according to the method described by Bradford (Bradford, M., Anal. Biochem. 72: 248-254, 1976) and representing it as an active unit corresponding to 1 mg of protein. […]

[3] = End-product inhibition by 7-ACA; assay type: biochemical; details: same active unit of enzyme
Description: as §1

B1: S12: sixfold CPC acylase mutant, α-subunit SEQ ID NO: 7 and β-subunit SEQ ID NO: 8 (protein)
alpha: TMAAKTDREALQAALPPLSGSLSIPGLSAPVRVQRDGWGIPHIKASGEADAYRALGFVHAQDRLFQMELTRRKALGRAAEWLGAEAAEADILVRRLGMEKVCRRDFEALGAEAKDMLRAYAAGVNAFLASGAPLPIEYSLLGAEPEPWEPWHSIAVMRRLGLLMGSVWFKLWRMLALPVVGAANALKLRYDDGGQDLLCIPPGVEAERLEADLAALRPAVDALLKAMGG
beta: SNNWAVAPGRTATGRPILAGDPHRVFEIPGMYAQHHLACDRFDMIGLTVPGVPGFPHNAHNGKVAYCVTHAFMDTHDLYLEQFAEDGRTARFGNEFEPVAWRRDRIAVRGGADREFDIVETRHGPVIAGDPLEGAALTLRSVQFAETDLSFDCLTRMPGASTVAQLYDATRGWGLVDHNLVAGDVAGSIGHLVRARVPSRPRENGWLPVPGWSGEHEWRGWIPHEAMPRVIDPPGGLIVTANNRVVADDHPDYLCTDCHPPYRAERIMERLVASPAFAVDDAAAIHADTLSPHVGLLRARLEALGIQGSLPAEELRQTLIAWDGRMDAGSQAASAYNAFRRALTRLVTARSGLEQAIAHPFAAVPPGVSPQGQVWWAVPTLLRNDDAGMLKGWSWDEALSEALSVATQNLTGRGWGEEHRPRFTHPLSAQFPAWAALLNPVSRPIGGDGDTVLANGLVPSAGPEATYGALCRYVFDVGNWDNSRWVVFHGASGHPASPHYADQNAPWSDCAMVPMLYSWDRIAAEAVTSQELVPA
modifications: alpha-subunit of mutatnt CPC acylase S12 protein; beta-subunit of mutatnt CPC acylase S12 protein
productivity of CPC acylase mutant [1]: 1,207 unit/l
reactivity to CPC (in words) [2]: higher than that of #76 mutant
end-product inhibition by 7-ACA (in words) [3]: significantly decreased as compared with that of the wild-type enzyme
